B1: FKBP-227 (protein)
chain: HCPIKSRKGDVLHMHYTGKLEDGTEFDSSLPRNQPFVFSLGTGEVIKGWDQGLLGMCEGEKRKLVIPSELGYGERGWPPKIPGGATLVFEVELLKIRR
modifications: Description of sequence: Construct Name: FKBP-227; Mutation(s): Q72R Q84E A117W DRD E137R
B2: FKBP-236 (protein)
chain: B1 chain with G73N, R97E
modifications: Description of sequence: Construct Name: FKBP-236; Mutation(s): Q72R Q84E A117W DRD G113N
B3: FKBP-238 (protein)
chain: B1 chain with M14A, V45R, G73N, R97E
modifications: Description of sequence: Construct Name: FKBP-238; Mutation(s): Q72R Q84E A117W V85R DRD G113N M54A
B4: FKBP-237 (protein)
chain: B1 chain with V45R, G73N, R97E
modifications: Description of sequence: Construct Name: FKBP-237; Mutation(s): Q72R Q84E A117W V85R DRD G113N
B5: FKBP-244: FKBP13 DRD-AcGFP construct of Table 10 (protein)
chain: B1 chain with M14A, V45R, P78S, R97E
modifications: Description of sequence: Construct Name: FKBP-244; Mutation(s): Q72R Q84E A117W V85R DRD P118S M54A
B6: FKBP-233: FKBP13 DRD-AcGFP construct of Table 10 (protein)
chain: B1 chain with D50T, R97E
modifications: Description of sequence: Construct Name: FKBP-233; Mutation(s): Q72R Q84E A117W DRD D90T
B7: FKBP-229: FKBP13 DRD-AcGFP construct of Table 10 (protein)
chain: B1 chain with M14A, V45R
modifications: Description of sequence: Construct Name: FKBP-229; Mutation(s): Q72R Q84E A117W V85R DRD E137R M54A
B8: FKBP-248 (protein)
chain: B1 chain with S28D, R97E
modifications: Description of sequence: Construct Name: FKBP-248; Mutation(s): Q72R Q84E A117W DRD S68D
B9: FKBP-246 (protein)
chain: B1 chain with S29H, V45R, R97E
modifications: Description of sequence: Construct Name: FKBP-246; Mutation(s): Q72R Q84E A117W V85R DRD S69H
B10: FKBP-234 (protein)
chain: B1 chain with V45R, D50T, R97E
modifications: Description of sequence: Construct Name: FKBP-234; Mutation(s): Q72R Q84E A117W V85R DRD D90T
B11: FKBP-241 (protein)
chain: B1 chain with M14A, E21Y, V45R, R97E
modifications: Description of sequence: Construct Name: FKBP-241; Mutation(s): Q72R Q84E A117W V85R DRD E61Y M54A
B12: FKBP-165 (protein)
chain: B1 chain with M14A, V45R, P79V, R97E
modifications: Description of sequence: Construct Name: FKBP-165; Mutation(s): Q72R Q84E A117W DRD M54A P119V V85R
B13: FKBP-240: FKBP13 DRD-AcGFP construct of Table 10 (protein)
chain: B1 chain with E21Y, V45R, R97E
modifications: Description of sequence: Construct Name: FKBP-240; Mutation(s): Q72R Q84E A117W V85R DRD E61Y
B14: FKBP-231 (protein)
chain: B1 chain with G23M, V45R, R97E
modifications: Description of sequence: Construct Name: FKBP-231; Mutation(s): Q72R Q84E A117W V85R DRD G63M
B15: FKBP-245 (protein)
chain: B1 chain with S29H, R97E
modifications: Description of sequence: Construct Name: FKBP-245; Mutation(s): Q72R Q84E A117W DRD S69H
B16: FKBP-242 (protein)
chain: B1 chain with P78S, R97E
modifications: Description of sequence: Construct Name: FKBP-242; Mutation(s): Q72R Q84E A117W DRD P118S
B17: FKBP-230: FKBP13 DRD-AcGFP construct of Table 10 (protein)
chain: B1 chain with G23M, R97E
modifications: Description of sequence: Construct Name: FKBP-230; Mutation(s): Q72R Q84E A117W DRD G63M
B18: FKBP-243: FKBP13 DRD-AcGFP construct of Table 10 (protein)
chain: B1 chain with V45R, P78S, R97E
modifications: Description of sequence: Construct Name: FKBP-243; Mutation(s): Q72R Q84E A117W V85R DRD P118S
B19: FKBP-239 (protein)
chain: B1 chain with E21Y, R97E
modifications: Description of sequence: Construct Name: FKBP-239; Mutation(s): Q72R Q84E A117W DRD E61Y
B20: FKBP-232 (protein)
chain: B1 chain with M14A, G23M, V45R, R97E
modifications: Description of sequence: Construct Name: FKBP-232; Mutation(s): Q72R Q84E A117W V85R DRD G63M M54A
B21: FKBP-164 (protein)
chain: B1 chain with M14A, V45R, P78V, R97E
modifications: Description of sequence: Construct Name: FKBP-164; Mutation(s): Q72R Q84E A117W DRD M54A P118V V85R
B22: FKBP-247 (protein)
chain: B1 chain with M14A, S29H, V45R, R97E
modifications: Description of sequence: Construct Name: FKBP-247; Mutation(s): Q72R Q84E A117W V85R DRD S69H M54A
B23: FKBP-235 (protein)
chain: B1 chain with M14A, V45R, D50T, R97E
modifications: Description of sequence: Construct Name: FKBP-235; Mutation(s): Q72R Q84E A117W V85R DRD D90T M54A

Numbering of substitutions follows the chain as printed. In names and notes the source's numbering stands.

A short description of one test: Example 4: dose response of FKBP constructs 160-255, Ec50, Ec90 and fold change (raw and normalized to mCherry). In kind it is cell-based. Particulars: FKBP constructs 160-255; not normalized; read-out: EC90. How it is done:
Additional experiments were performed for constructs FKBP-160-292.
Turning to B1, the EC90 amounted to 293 nM.

With B2, the 90% effect concentration (EC90) is 1810 nM.

On to B3, for which the EC90 is 846 nM.

Consider B4, for which the EC90 worked out at 550 nM.

B5: the EC90 was found to be 307 nM.

As for B6, the EC90 stood at 272 nM.

B7: the concentration for an effect of 90% (EC90) was 484 nM.

In the case of B8, the EC90 is 1800 nM.

Take B9: the EC90 stood at 1530 nM.

For B10, the EC90 turned out to be 8760 nM.

For B11, the 90% effect concentration (EC90) was determined as 221 nM.

Regarding B12, the 90% effect concentration (EC90) worked out at 970 nM.

For B13, the EC90 came to 111 nM.

As for B14, the EC90 turned out to be 396 nM.

Consider B15, for which the EC90 is 5830 nM.

As to B16, the 90% effect concentration (EC90) was found to be 466 nM.

Consider B17, for which the EC90 was determined as 997 nM.

In the case of B18, the EC90 worked out at 125 nM.

Take B19: the concentration for an effect of 90% (EC90) worked out at 223 nM.

Consider B20, for which the EC90 worked out at 938 nM.

Consider B21, for which the EC90 amounted to 580 nM.

For the molecule B22, the EC90 was found to be 2810 nM.

B23: the concentration for an effect of 90% (EC90) is 9980 nM.

Staying with this test, now noted: fold change during initial analysis.
With B1, the “FC (fold change)” value is on record as 29.0.

For the molecule B2, the “FC (fold change)” value is 39.1.

Turning to B3, the “FC (fold change)” value amounted to 26.8.

As for B4, the “FC (fold change)” value is listed as 24.1.

For B5, the “FC (fold change)” value came out at 51.2.

With B6, the “FC (fold change)” value was found to be 47.2.

As for B7, the “FC (fold change)” value amounted to 54.0.

With B8, the “FC (fold change)” value is 50.1.

On to B9, for which the “FC (fold change)” value was determined as 30.4.

With B10, the “FC (fold change)” value is given as 23.5.

Consider B11, for which the “FC (fold change)” value came out at 43.9.

As to B12, the “FC (fold change)” value came out at 47.6.

Consider B13, for which the “FC (fold change)” value was 43.7.

Consider B14, for which the “FC (fold change)” value is on record as 39.9.

Take B15: the “FC (fold change)” value came to 40.6.

Consider B16, for which the “FC (fold change)” value was 24.4.

Regarding B17, the “FC (fold change)” value is 49.0.

As to B18, the “FC (fold change)” value is reported as 37.1.

As to B19, the “FC (fold change)” value came out at 31.1.

For B20, the “FC (fold change)” value was 35.0.

With B21, the “FC (fold change)” value stood at 42.7.

Consider B22, for which the “FC (fold change)” value turned out to be 35.0.

Take B23: the “FC (fold change)” value came out at 23.5.

The same test, now with this note: normalized to mCherry; read-out: EC90 (Norm).
For B1, the concentration for an effect of 90% (EC90) was found to be 278 nM.

In the case of B2, the concentration for an effect of 90% (EC90) was 1960 nM.

With B3, the EC90 was 863 nM.

B4: the 90% effect concentration (EC90) was 484 nM.

In the case of B5, the EC90 stood at 328 nM.

Consider B6, for which the EC90 amounted to 335 nM.

B7: the EC90 was determined as 455 nM.

Consider B8, for which the 90% effect concentration (EC90) is 1880 nM.

B9: the EC90 was 1520 nM.

Regarding B10, the EC90 is 12100 nM.

With B11, the EC90 turned out to be 222 nM.

With B12, the EC90 turned out to be 984 nM.

B13: the EC90 was determined as 111 nM.

With B14, the EC90 worked out at 399 nM.

Take B15: the EC90 amounted to 5870 nM.

B16: the EC90 was 539 nM.

B17: the EC90 stood at 890 nM.

Consider B18, for which the 90% effect concentration (EC90) was found to be 127 nM.

For the molecule B19, the concentration for an effect of 90% (EC90) stood at 243 nM.

B20: the EC90 is 1090 nM.

In the case of B21, the EC90 came to 621 nM.

Consider B22, for which the EC90 came out at 2950 nM.

For the molecule B23, the EC90 is 11100 nM.

Broadly, the EC90 is the point of the concentration-response curve where the effect stands at 90%.

Source of the values: patent US20250186614A1, “COMPACT DRUG RESPONSIVE DOMAINS FOR REGULATION OF FUNCTION/ABUNDANCE AND DELIVERY OF POLYPEPTIDE PAYLOADS” (OBSIDIAN THERAPEUTICS, INC., priority 2022, published 2025).
